Experimental data from PMC10653809.

Substrate: COc1cc(S(=O)(=O)O)c(C)cc1N=Nc1c(O)ccc2cc(S(=O)(=O)O)ccc12
Assay: purified protein
Conditions: 2,000 µM NADH, 20 µM FMN, 20 mM sodium phosphate buffer, 37°C, aerobic

B1: AzoR (Escherichia coli K-12) (protein)
chain: SKVLVLKSSILAGYSQSNQLSDYFVEQWREKHSADEITVRDLAANPIPVLDGELVGALRPSDAPLTPRQQEALALSDELIAELKAHDVIVIAAPMYNFNISTQLKNYFDLVARAGVTFRYTENGPEGLVTGKKAIVITSRGGIHKDGPTDLVTPYLSTFLGFIGITDVKFVFAEGIAYGPEMAAKAQSDAKAAIDSIVSA
Km: 67.7 µM
